Measurements from paper PMC3639042 (Molecular Biology of the Cell, 2013).
Values belong to the binder of their own block, whether it stands above or below them.

Key:
[1] = biological target: T1, Hof1-4E–3HA (budding yeast, UniProt Q05080 1-669, S313E | S421E | S533E | S563E); assay: co-IP
T1 sequence (looked up): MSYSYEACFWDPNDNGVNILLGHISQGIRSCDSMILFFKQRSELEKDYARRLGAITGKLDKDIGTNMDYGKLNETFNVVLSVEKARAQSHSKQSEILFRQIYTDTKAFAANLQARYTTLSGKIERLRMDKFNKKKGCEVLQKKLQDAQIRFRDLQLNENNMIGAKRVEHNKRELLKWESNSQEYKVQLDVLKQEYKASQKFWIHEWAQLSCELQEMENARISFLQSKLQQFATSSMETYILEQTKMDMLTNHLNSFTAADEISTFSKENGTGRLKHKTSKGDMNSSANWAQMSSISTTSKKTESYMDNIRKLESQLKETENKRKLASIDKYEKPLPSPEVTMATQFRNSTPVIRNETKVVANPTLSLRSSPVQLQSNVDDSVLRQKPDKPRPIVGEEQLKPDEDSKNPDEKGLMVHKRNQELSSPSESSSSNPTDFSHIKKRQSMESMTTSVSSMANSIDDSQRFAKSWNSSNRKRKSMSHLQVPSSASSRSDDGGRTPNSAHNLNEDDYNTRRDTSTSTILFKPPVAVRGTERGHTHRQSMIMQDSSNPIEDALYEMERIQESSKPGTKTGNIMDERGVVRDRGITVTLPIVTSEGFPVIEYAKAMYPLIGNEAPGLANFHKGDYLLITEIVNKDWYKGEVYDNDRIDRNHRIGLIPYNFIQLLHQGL

[2] = biological target: septin complex (6His-Cdc12-Cdc3-Cdc10-Cdc11) (budding yeast, UniProt P32468 1-407; P32457 1-520; P25342 1-322; P32458 1-415); assay: pull-down
Chain of septin complex (6His-Cdc12-Cdc3-Cdc10-Cdc11) (P32468 whole entry, chain 1 of 3): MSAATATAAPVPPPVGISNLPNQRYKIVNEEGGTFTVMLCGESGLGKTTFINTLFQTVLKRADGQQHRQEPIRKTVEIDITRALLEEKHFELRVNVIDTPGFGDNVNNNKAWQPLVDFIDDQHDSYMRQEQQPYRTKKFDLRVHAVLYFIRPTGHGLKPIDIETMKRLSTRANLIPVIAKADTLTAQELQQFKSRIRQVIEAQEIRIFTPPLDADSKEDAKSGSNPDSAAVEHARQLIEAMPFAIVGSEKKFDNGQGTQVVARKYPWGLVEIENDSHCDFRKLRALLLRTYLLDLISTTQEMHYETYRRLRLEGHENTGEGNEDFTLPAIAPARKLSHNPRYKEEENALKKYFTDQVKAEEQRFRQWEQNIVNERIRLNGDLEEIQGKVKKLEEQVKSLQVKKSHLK
Chain of septin complex (6His-Cdc12-Cdc3-Cdc10-Cdc11) (P32457 whole entry, chain 2 of 3): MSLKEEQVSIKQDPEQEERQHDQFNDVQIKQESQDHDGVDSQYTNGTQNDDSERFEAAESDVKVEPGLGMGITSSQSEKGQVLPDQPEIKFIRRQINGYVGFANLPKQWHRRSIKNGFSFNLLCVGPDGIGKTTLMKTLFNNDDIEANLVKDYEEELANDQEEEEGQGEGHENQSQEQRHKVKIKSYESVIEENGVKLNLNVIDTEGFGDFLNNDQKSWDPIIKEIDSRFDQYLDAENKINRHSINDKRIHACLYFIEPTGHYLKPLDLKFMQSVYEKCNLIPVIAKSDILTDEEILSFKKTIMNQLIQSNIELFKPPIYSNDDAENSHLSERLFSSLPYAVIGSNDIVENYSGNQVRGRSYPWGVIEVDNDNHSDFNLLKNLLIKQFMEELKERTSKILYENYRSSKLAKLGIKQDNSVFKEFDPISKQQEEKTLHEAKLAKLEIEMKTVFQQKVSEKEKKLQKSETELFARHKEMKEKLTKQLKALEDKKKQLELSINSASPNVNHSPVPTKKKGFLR
Chain of septin complex (6His-Cdc12-Cdc3-Cdc10-Cdc11) (P32458 whole entry, chain 4 of 3): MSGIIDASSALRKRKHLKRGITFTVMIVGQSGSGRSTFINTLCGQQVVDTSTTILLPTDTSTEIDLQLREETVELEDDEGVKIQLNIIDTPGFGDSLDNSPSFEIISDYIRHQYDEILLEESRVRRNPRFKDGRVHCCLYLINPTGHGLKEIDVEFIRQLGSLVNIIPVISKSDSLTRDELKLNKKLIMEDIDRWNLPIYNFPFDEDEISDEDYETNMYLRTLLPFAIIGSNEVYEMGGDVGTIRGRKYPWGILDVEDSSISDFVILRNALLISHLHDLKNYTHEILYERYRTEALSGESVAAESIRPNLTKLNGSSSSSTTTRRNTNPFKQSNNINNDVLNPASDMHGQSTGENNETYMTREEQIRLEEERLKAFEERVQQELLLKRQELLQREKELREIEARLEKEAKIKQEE

fold less coimmunoprecipitated than with Hof1-3HA [1]: 2.5 fold
B1: Cdc10-TAP (natural protein, budding yeast, UniProt P25342 1-322, looked up)
chain: MDPLSSVQPASYVGFDTITNQIEHRLLKKGFQFNIMVVGQSGLGKSTLINTLFASHLIDSATGDDISALPVTKTTEMKISTHTLVEDRVRLNINVIDTPGFGDFIDNSKAWEPIVKYIKEQHSQYLRKELTAQRERFITDTRVHAILYFLQPNGKELSRLDVEALKRLTEIANVIPVIGKSDTLTLDERTEFRELIQNEFEKYNFKIYPYDSEELTDEELELNRSVRSIIPFAVVGSENEIEINGETFRGRKTRWSAINVEDINQCDFVYLREFLIRTHLQDLIETTSYIHYEGFRARQLIALKENANSRSSAHMSSNAIQR

binding result [2]: binds
B2: GST-HOF1-SID (aa 200–355) (domain or fragment, budding yeast, UniProt Q05080 200-355, looked up)
chain: KFWIHEWAQLSCELQEMENARISFLQSKLQQFATSSMETYILEQTKMDMLTNHLNSFTAADEISTFSKENGTGRLKHKTSKGDMNSSANWAQMSSISTTSKKTESYMDNIRKLSSQLKETENKRKLASIDKYEKPLPSPEVTMATQFRNSTPVIRN
